Reference: patent US20250136677A1 (ZOETIS SERVICES, published 2025)

T1: wildtype feline IL-31 protein (Feline_IL31_wildtype) (feline)
T1 chain: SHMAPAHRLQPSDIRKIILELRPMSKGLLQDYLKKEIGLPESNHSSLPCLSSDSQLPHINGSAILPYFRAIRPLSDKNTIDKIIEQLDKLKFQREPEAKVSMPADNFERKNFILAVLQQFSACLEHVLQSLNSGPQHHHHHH


Key:
[1] = molecular target: T1, wildtype feline IL-31 protein …; assay: cell-based or functional assay
[2] = molecular target: T1, wildtype feline IL-31 protein …; assay: Biacore, feline IL-31 chip, mAb 100 nM, share of points within parent mean +/-3 SD; parameters: key: % of mutant data points within parent mAb mean ±3 SD
Source text: The mean response unit of four replicates of the parent mAb+/−3 standard deviations was used to generate parameters to define a threshold of response units comprising both the on- and off-rates antibody binding (FIG. 22). The percentage of data points for each mutant fell within this threshold was then used to define a “% similarity score” (FIG. 23).

Binder	% Inhibition Relative to Parent (pSTAT, FCWF-4 cells) [1] [%]	Binding Similarity score [2]
A42 (antibody, V domains shown) VH: QVLLVQSGAEVRTPGASVKIFCKASGYSFTSYTIHWLRQAPAQGLEWMGNINPASGYTENNQRFKDRLTLTADTSTNTAYMELSSLRSADTAMYYCARWGFKYDGEWSFDVWGAGTTVTVSS VL: EIQMTQSPSSLSASPGDRVTITCRASQGISIWLSWYQQKPGNIPKVLINKASNLHIGVPSRFSGSGSGTDFTLTISSLEPEDAATYYCLQSQTYPLTFGGGTKLEIK	83.6	44.9
A60 (antibody, V domains shown) VH: QVLLVQSGAEVRTPGASVKIFCKASGYSFTSYTIHWLRQAPAQGLEWMGNINPTSGYTENNQRFKDRLTLTADTSTNTAYMELSSLRSADTAMYYCARWGFKYDGEASFDVWGAGTTVTVSS VL: EIQMTQSPSSLSASPGDRVTITCRASQGISIWLSWYQQKPGNIPKVLINKASNLHIGVPSRFSGSGSGTDFTLTISSLEPEDAATYYCLQSQTYPLTFGGGTKLEIK	-8.7	2.4
A44 (antibody, V domains shown) VH: QVLLVQSGAEVRTPGASVKIFCKASGYSFTSYTIHWLRQAPAQGLEWMGNINPTSAYTENNQRFKDRLTLTADTSTNTAYMELSSLRSADTAMYYCARWGFKYDGEWSFDVWGAGTTVTVSS VL: EIQMTQSPSSLSASPGDRVTITCRASQGISIWLSWYQQKPGNIPKVLINKASNLHIGVPSRFSGSGSGTDFTLTISSLEPEDAATYYCLQSQTYPLTFGGGTKLEIK	36.9	55.8
A54 (antibody, V domains shown) VH: QVLLVQSGAEVRTPGASVKIFCKASGYSFTSYTIHWLRQAPAQGLEWMGNINPTSGYTENNQRFKDRLTLTADTSTNTAYMELSSLRSADTAMYYCARWGAKYDGEWSFDVWGAGTTVTVSS VL: EIQMTQSPSSLSASPGDRVTITCRASQGISIWLSWYQQKPGNIPKVLINKASNLHIGVPSRFSGSGSGTDFTLTISSLEPEDAATYYCLQSQTYPLTFGGGTKLEIK	-1	17.6
A57 (antibody, V domains shown) VH: QVLLVQSGAEVRTPGASVKIFCKASGYSFTSYTIHWLRQAPAQGLEWMGNINPTSGYTENNQRFKDRLTLTADTSTNTAYMELSSLRSADTAMYYCARWGFKYAGEWSFDVWGAGTTVTVSS VL: EIQMTQSPSSLSASPGDRVTITCRASQGISIWLSWYQQKPGNIPKVLINKASNLHIGVPSRFSGSGSGTDFTLTISSLEPEDAATYYCLQSQTYPLTFGGGTKLEIK	85.4	38.9
A47 (antibody, V domains shown) VH: QVLLVQSGAEVRTPGASVKIFCKASGYSFTSYTIHWLRQAPAQGLEWMGNINPTSGYTANNQRFKDRLTLTADTSTNTAYMELSSLRSADTAMYYCARWGFKYDGEWSFDVWGAGTTVTVSS VL: EIQMTQSPSSLSASPGDRVTITCRASQGISIWLSWYQQKPGNIPKVLINKASNLHIGVPSRFSGSGSGTDFTLTISSLEPEDAATYYCLQSQTYPLTFGGGTKLEIK	18	100
A52 (antibody, V domains shown) VH: QVLLVQSGAEVRTPGASVKIFCKASGYSFTSYTIHWLRQAPAQGLEWMGNINPTSGYTENNQRFKDRLTLTADTSTNTAYMELSSLRSADTAMYYCARAGFKYDGEWSFDVWGAGTTVTVSS VL: EIQMTQSPSSLSASPGDRVTITCRASQGISIWLSWYQQKPGNIPKVLINKASNLHIGVPSRFSGSGSGTDFTLTISSLEPEDAATYYCLQSQTYPLTFGGGTKLEIK	-2.1	2.4
A49 (antibody, V domains shown) VH: QVLLVQSGAEVRTPGASVKIFCKASGYSFTSYTIHWLRQAPAQGLEWMGNINPTSGYTENAQRFKDRLTLTADTSTNTAYMELSSLRSADTAMYYCARWGFKYDGEWSFDVWGAGTTVTVSS VL: EIQMTQSPSSLSASPGDRVTITCRASQGISIWLSWYQQKPGNIPKVLINKASNLHIGVPSRFSGSGSGTDFTLTISSLEPEDAATYYCLQSQTYPLTFGGGTKLEIK	46.6	37
A43 (antibody, V domains shown) VH: QVLLVQSGAEVRTPGASVKIFCKASGYSFTSYTIHWLRQAPAQGLEWMGNINPTAGYTENNQRFKDRLTLTADTSTNTAYMELSSLRSADTAMYYCARWGFKYDGEWSFDVWGAGTTVTVSS VL: EIQMTQSPSSLSASPGDRVTITCRASQGISIWLSWYQQKPGNIPKVLINKASNLHIGVPSRFSGSGSGTDFTLTISSLEPEDAATYYCLQSQTYPLTFGGGTKLEIK	47.4	100
A55 (antibody, V domains shown) VH: QVLLVQSGAEVRTPGASVKIFCKASGYSFTSYTIHWLRQAPAQGLEWMGNINPTSGYTENNQRFKDRLTLTADTSTNTAYMELSSLRSADTAMYYCARWGFAYDGEWSFDVWGAGTTVTVSS VL: EIQMTQSPSSLSASPGDRVTITCRASQGISIWLSWYQQKPGNIPKVLINKASNLHIGVPSRFSGSGSGTDFTLTISSLEPEDAATYYCLQSQTYPLTFGGGTKLEIK	66.8	12.6
A50 (antibody, V domains shown) VH: QVLLVQSGAEVRTPGASVKIFCKASGYSFTSYTIHWLRQAPAQGLEWMGNINPTSGYTENNARFKDRLTLTADTSTNTAYMELSSLRSADTAMYYCARWGFKYDGEWSFDVWGAGTTVTVSS VL: EIQMTQSPSSLSASPGDRVTITCRASQGISIWLSWYQQKPGNIPKVLINKASNLHIGVPSRFSGSGSGTDFTLTISSLEPEDAATYYCLQSQTYPLTFGGGTKLEIK	55.5	58.6
A45 (antibody, V domains shown) VH: QVLLVQSGAEVRTPGASVKIFCKASGYSFTSYTIHWLRQAPAQGLEWMGNINPTSGATENNQRFKDRLTLTADTSTNTAYMELSSLRSADTAMYYCARWGFKYDGEWSFDVWGAGTTVTVSS VL: EIQMTQSPSSLSASPGDRVTITCRASQGISIWLSWYQQKPGNIPKVLINKASNLHIGVPSRFSGSGSGTDFTLTISSLEPEDAATYYCLQSQTYPLTFGGGTKLEIK	22.8	31.9
A48 (antibody, V domains shown) VH: QVLLVQSGAEVRTPGASVKIFCKASGYSFTSYTIHWLRQAPAQGLEWMGNINPTSGYTEANQRFKDRLTLTADTSTNTAYMELSSLRSADTAMYYCARWGFKYDGEWSFDVWGAGTTVTVSS VL: EIQMTQSPSSLSASPGDRVTITCRASQGISIWLSWYQQKPGNIPKVLINKASNLHIGVPSRFSGSGSGTDFTLTISSLEPEDAATYYCLQSQTYPLTFGGGTKLEIK	47.3	70.2
A58 (antibody, V domains shown) VH: QVLLVQSGAEVRTPGASVKIFCKASGYSFTSYTIHWLRQAPAQGLEWMGNINPTSGYTENNQRFKDRLTLTADTSTNTAYMELSSLRSADTAMYYCARWGFKYDAEWSFDVWGAGTTVTVSS VL: EIQMTQSPSSLSASPGDRVTITCRASQGISIWLSWYQQKPGNIPKVLINKASNLHIGVPSRFSGSGSGTDFTLTISSLEPEDAATYYCLQSQTYPLTFGGGTKLEIK	15.3	16.7
